# From patent US6866851 (WASHINGTON UNIVERSITY, dated 2005)
# B1: PGP-F2ac (His-Flag-PGP-F2ac, from mouse persephin and rat GDNF) (ligand)
# chain: ALAHHHHHHDYKDDDDKGSCRLWSLTLPVAELGLGYASEEKVIFRYCAGSCPQEARTQHSLVLARLRGRGRAHGRPCCQPTAFDDDVTFLDDQHHYHILRKHSAAACGC
# Biological target: GFRα2-RET receptor complex (cells transfected with GFRα2 and expressing RET)
# Assay: cell-based or functional assay
binder,measurement,value
B1,GFRα2-RET reporter activation relative to GDNF,< 30 % of GDNF
